± gives the uncertainty stated by the source.
experiment: abundance fitness (aPCA) (normalised: wild type 0, dead -1); higher = more abundant; growth selection in yeast, the domain comes from the species named; conditions: Homo sapiens

First: Scaffold attachment factor B2 L47D, Q14151
Second: Scaffold attachment factor B2 K62G, Q14151
The abundance fitness of the first is lower: -0.491 ± 0.11 for the first, -0.115 ± 0.07 for the second.

Compared with “Scaffold attachment factor B2 R45V, Q14151”, “Scaffold attachment factor B2 K53Q, Q14151” is higher in abundance fitness: -0.565 ± 0.095 for the first, -0.274 ± 0.12 for the second.

“Scaffold attachment factor B2 L60S, Q14151” and “Scaffold attachment factor B2 K65C, Q14151” are within error of each other in abundance fitness: -0.398 ± 0.16 for the first, -0.145 ± 0.12 for the second.

“Scaffold attachment factor B2 M57H, Q14151” and “Scaffold attachment factor B2 R29L, Q14151” are within error of each other in abundance fitness: -0.392 ± 0.14 for the first, -0.288 ± 0.07 for the second.

“Scaffold attachment factor B2 L38S, Q14151” and “Scaffold attachment factor B2 G51C, Q14151” are within error of each other in abundance fitness: -0.506 ± 0.094 for the first, -0.517 ± 0.13 for the second.

First: Scaffold attachment factor B2 R34H, Q14151
Second: Scaffold attachment factor B2 L42R, Q14151
The abundance fitness of the first is higher: -0.205 ± 0.13 for the first, -0.668 ± 0.077 for the second.

“Scaffold attachment factor B2 D70W, Q14151” and “Tyrosine-protein kinase Lck I67K, P06239” are within error of each other in abundance fitness: -0.576 ± 0.16 for the first, -0.442 ± 0.14 for the second.

“Scaffold attachment factor B2 L47Y, Q14151” and “Scaffold attachment factor B2 K44F, Q14151” are within error of each other in abundance fitness: -0.714 ± 0.1 for the first, -0.61 ± 0.12 for the second.

“Scaffold attachment factor B2 V64I, Q14151” and “Scaffold attachment factor B2 E66N, Q14151” are within error of each other in abundance fitness: -0.271 ± 0.14 for the first, -0.322 ± 0.26 for the second.

Compared with “Scaffold attachment factor B2 N52I, Q14151”, “Scaffold attachment factor B2 L56K, Q14151” is lower in abundance fitness: -0.237 ± 0.12 for the first, -0.524 ± 0.096 for the second.

First: Scaffold attachment factor B2 R59E, Q14151
Second: Scaffold attachment factor B2 D37G, Q14151
The abundance fitness of the first is higher: -0.294 ± 0.099 for the first, -0.602 ± 0.076 for the second.

“Scaffold attachment factor B2 E67H, Q14151” and “Scaffold attachment factor B2 D48Q, Q14151” are within error of each other in abundance fitness: -0.218 ± 0.4 for the first, -0.329 ± 0.11 for the second.

“Scaffold attachment factor B2 E32D, Q14151” and “Scaffold attachment factor B2 T27D, Q14151” are within error of each other in abundance fitness: 0.003 ± 0.1 for the first, 0.024 ± 0.18 for the second.

“Scaffold attachment factor B2 D48M, Q14151” and “Scaffold attachment factor B2 V35G, Q14151” are within error of each other in abundance fitness: -0.545 ± 0.14 for the first, -0.351 ± 0.074 for the second.

“Scaffold attachment factor B2 D48R, Q14151” and “Scaffold attachment factor B2 E41L, Q14151” are within error of each other in abundance fitness: -0.625 ± 0.082 for the first, -0.876 ± 0.35 for the second.

Compared with “Scaffold attachment factor B2 G68I, Q14151”, “Scaffold attachment factor B2 K65A, Q14151” is higher in abundance fitness: -0.551 ± 0.099 for the first, -0.138 ± 0.12 for the second.

“Scaffold attachment factor B2 K53V, Q14151” and “Scaffold attachment factor B2 E67C, Q14151” are within error of each other in abundance fitness: -0.577 ± 0.083 for the first, -0.433 ± 0.12 for the second.

“Scaffold attachment factor B2 D48G, Q14151” and “Scaffold attachment factor B2 G68S, Q14151” are within error of each other in abundance fitness: -0.284 ± 0.077 for the first, -0.178 ± 0.12 for the second.

“Scaffold attachment factor B2 R34P, Q14151” and “Scaffold attachment factor B2 N46Q, Q14151” are within error of each other in abundance fitness: 0.02 ± 0.13 for the first, 0.023 ± 0.14 for the second.

Going from “Scaffold attachment factor B2 L56N, Q14151” to “Scaffold attachment factor B2 N52G, Q14151”, the abundance fitness rises from -1.2 ± 0.43 to -0.037 ± 0.087.

First: Scaffold attachment factor B2 E67M, Q14151
Second: Scaffold attachment factor B2 R34T, Q14151
The abundance fitness of the first is lower: -0.525 ± 0.11 for the first, 0.157 ± 0.099 for the second.

Going from “Scaffold attachment factor B2 K62F, Q14151” to “Scaffold attachment factor B2 S31H, Q14151”, the abundance fitness rises from -0.385 ± 0.1 to -0.194 ± 0.09.

First: Scaffold attachment factor B2 K62Q, Q14151
Second: Scaffold attachment factor B2 K53D, Q14151
The abundance fitness of the first is higher: -0.125 ± 0.13 for the first, -0.716 ± 0.22 for the second.

Compared with “Scaffold attachment factor B2 V55G, Q14151”, “Scaffold attachment factor B2 K61M, Q14151” is higher in abundance fitness: -0.438 ± 0.076 for the first, -0.186 ± 0.11 for the second.

Going from “Scaffold attachment factor B2 L33S, Q14151” to “Scaffold attachment factor B2 V55F, Q14151”, the abundance fitness falls from -0.138 ± 0.097 to -0.748 ± 0.29.

First: Scaffold attachment factor B2 R34Q, Q14151
Second: Scaffold attachment factor B2 S31Y, Q14151
The abundance fitness of the first is higher: 0.003 ± 0.081 for the first, -0.629 ± 0.12 for the second.

“Tyrosine-protein kinase Lck I67Q, P06239” and “Scaffold attachment factor B2 L33K, Q14151” are within error of each other in abundance fitness: -0.394 ± 0.14 for the first, -0.319 ± 0.11 for the second.

Compared with “Scaffold attachment factor B2 L47H, Q14151”, “Scaffold attachment factor B2 L33G, Q14151” is higher in abundance fitness: -0.789 ± 0.25 for the first, -0.237 ± 0.076 for the second.

“Scaffold attachment factor B2 V64K, Q14151” and “Scaffold attachment factor B2 R28T, Q14151” are within error of each other in abundance fitness: -0.035 ± 0.14 for the first, -0.045 ± 0.12 for the second.

Compared with “Scaffold attachment factor B2 D48P, Q14151”, “Scaffold attachment factor B2 S31G, Q14151” is lower in abundance fitness: 0.03 ± 0.089 for the first, -0.208 ± 0.076 for the second.

“Scaffold attachment factor B2 D70I, Q14151” and “Scaffold attachment factor B2 G50Q, Q14151” are within error of each other in abundance fitness: -0.258 ± 0.17 for the first, -0.329 ± 0.12 for the second.

First: Scaffold attachment factor B2 L60C, Q14151
Second: Tyrosine-protein kinase Lck H76T, P06239
The abundance fitness of the first is lower: -0.691 ± 0.14 for the first, -0.17 ± 0.1 for the second.

“Scaffold attachment factor B2 V55D, Q14151” and “Scaffold attachment factor B2 L33Y, Q14151” are within error of each other in abundance fitness: -0.007 ± 0.1 for the first, -0.33 ± 0.32 for the second.

“Scaffold attachment factor B2 L47S, Q14151” and “Scaffold attachment factor B2 R34I, Q14151” are within error of each other in abundance fitness: -0.632 ± 0.093 for the first, -0.75 ± 0.15 for the second.

“Scaffold attachment factor B2 V55R, Q14151” and “Scaffold attachment factor B2 L42E, Q14151” are within error of each other in abundance fitness: -0.326 ± 0.075 for the first, -0.381 ± 0.084 for the second.

First: Scaffold attachment factor B2 N52K, Q14151
Second: Scaffold attachment factor B2 T49N, Q14151
The abundance fitness of the first is higher: -0.123 ± 0.093 for the first, -0.807 ± 0.43 for the second.

Compared with “Scaffold attachment factor B2 G51L, Q14151”, “Scaffold attachment factor B2 K53P, Q14151” is higher in abundance fitness: -0.908 ± 0.087 for the first, -0.204 ± 0.099 for the second.

“Scaffold attachment factor B2 A63Q, Q14151” and “Tyrosine-protein kinase Lck E92N, P06239” are within error of each other in abundance fitness: -0.292 ± 0.11 for the first, -0.047 ± 0.14 for the second.

First: Scaffold attachment factor B2 A63L, Q14151
Second: Scaffold attachment factor B2 L60Q, Q14151
The abundance fitness of the first is lower: -0.984 ± 0.16 for the first, -0.271 ± 0.15 for the second.

“Scaffold attachment factor B2 V35F, Q14151” and “Scaffold attachment factor B2 A40L, Q14151” are within error of each other in abundance fitness: -0.448 ± 0.099 for the first, -0.292 ± 0.12 for the second.

“Scaffold attachment factor B2 R28A, Q14151” and “Scaffold attachment factor B2 D70P, Q14151” are within error of each other in abundance fitness: -0.139 ± 0.094 for the first, 0.014 ± 0.13 for the second.

Going from “Scaffold attachment factor B2 Q69R, Q14151” to “Scaffold attachment factor B2 R28G, Q14151”, the abundance fitness rises from -0.104 ± 0.074 to 0.05 ± 0.071.

“Scaffold attachment factor B2 V64Q, Q14151” and “Scaffold attachment factor B2 L30R, Q14151” are within error of each other in abundance fitness: -0.141 ± 0.16 for the first, -0.272 ± 0.072 for the second.

Compared with “Scaffold attachment factor B2 E58V, Q14151”, “Scaffold attachment factor B2 K44G, Q14151” is higher in abundance fitness: -0.616 ± 0.076 for the first, -0.225 ± 0.072 for the second.

Compared with “Scaffold attachment factor B2 L47V, Q14151”, “Scaffold attachment factor B2 R29E, Q14151” is higher in abundance fitness: -0.622 ± 0.083 for the first, 0.113 ± 0.095 for the second.

“Scaffold attachment factor B2 L30E, Q14151” and “Scaffold attachment factor B2 Q69H, Q14151” are within error of each other in abundance fitness: -0.232 ± 0.094 for the first, -0.143 ± 0.2 for the second.

Compared with “Scaffold attachment factor B2 I36T, Q14151”, “Scaffold attachment factor B2 Q69C, Q14151” is lower in abundance fitness: 0.173 ± 0.12 for the first, -0.307 ± 0.2 for the second.

Compared with “Scaffold attachment factor B2 L56T, Q14151”, “Scaffold attachment factor B2 R29S, Q14151” is higher in abundance fitness: -0.546 ± 0.12 for the first, -0.097 ± 0.1 for the second.

“Scaffold attachment factor B2 R45S, Q14151” and “Scaffold attachment factor B2 L38P, Q14151” are within error of each other in abundance fitness: -0.509 ± 0.092 for the first, -0.637 ± 0.1 for the second.

“Scaffold attachment factor B2 L60F, Q14151” and “Scaffold attachment factor B2 L30A, Q14151” are within error of each other in abundance fitness: -0.448 ± 0.16 for the first, -0.28 ± 0.099 for the second.

Compared with “Scaffold attachment factor B2 R59K, Q14151”, “Scaffold attachment factor B2 V35W, Q14151” is lower in abundance fitness: -0.41 ± 0.19 for the first, -0.684 ± 0.083 for the second.

“Scaffold attachment factor B2 D48Y, Q14151” and “Scaffold attachment factor B2 R59Q, Q14151” are within error of each other in abundance fitness: -0.744 ± 0.14 for the first, -0.595 ± 0.097 for the second.

“Scaffold attachment factor B2 M57T, Q14151” and “Scaffold attachment factor B2 E67V, Q14151” are within error of each other in abundance fitness: -0.363 ± 0.1 for the first, -0.333 ± 0.1 for the second.

“Scaffold attachment factor B2 K43V, Q14151” and “Scaffold attachment factor B2 K61Q, Q14151” are within error of each other in abundance fitness: -0.149 ± 0.1 for the first, -0.072 ± 0.096 for the second.

Compared with “Scaffold attachment factor B2 G68A, Q14151”, “Scaffold attachment factor B2 L60M, Q14151” is lower in abundance fitness: 0.004 ± 0.094 for the first, -0.343 ± 0.15 for the second.

Source: the Human Domainome abundance scans (Beltran et al. 2025)
